From paper PMC6335420, “The cell cycle regulator GpsB functions as cytosolic adaptor for multiple cell wall enzymes” (Nature Communications, 2019) come the findings set out here.

Assay [1] has as its target Fluorescein-SpPBP2x1-29 (S. pneumoniae R6). Briefly: fluorescence polarisation.
The target in assay [2] is TAMRA-SpPBP2a23-45 Arg31Lys (S. pneumoniae R6). Briefly: fluorescence polarisation. (Fluorescence polarisation rises when a labelled molecule tumbles more slowly, as on binding a larger partner.)
The target of assay [3] is TAMRA-SpPBP2a23-45 Arg31LysArg33Lys (S. pneumoniae R6). Nature of the assay: fluorescence polarisation.
In assay [4] the target is TAMRA-SpPBP2a23-45 Arg33Ala (S. pneumoniae R6). Briefly: fluorescence polarisation.
The target in assay [5] is TAMRA-SpPBP2a23-45 Arg33Lys (S. pneumoniae R6). Nature of the assay: fluorescence polarisation.
The target of assay [6] is TAMRA-SpPBP2a23-45 Arg36Ala (S. pneumoniae R6). Nature of the assay: fluorescence polarisation.
The target in assay [7] is TAMRA-SpPBP2a23-45 Ser32Ala (S. pneumoniae R6). Nature of the assay: fluorescence polarisation.
In assay [8] the target is TAMRA-SpPBP2a23-45 wildtype (S. pneumoniae R6). Briefly: fluorescence polarisation.
Assay [9] concerns the target Fluorescein-LmPBPA11-20 Arg12Ala (L. monocytogenes EGD-e). Briefly: fluorescence polarisation.
The target in assay [10] is Fluorescein-LmPBPA11-20 Arg8Ala (L. monocytogenes EGD-e). Nature of the assay: fluorescence polarisation.
Assay [11] deals with Fluorescein-LmPBPA11-20 Arg8AlaSer16Arg (L. monocytogenes EGD-e). Nature of the assay: fluorescence polarisation.
Assay [12] has as its target Fluorescein-LmPBPA11-20 wildtype (L. monocytogenes EGD-e). Briefly: fluorescence polarisation.
Assay [13] has as its target LmPBPA1_(1-20)^Arg12Ala (L. monocytogenes EGD-e). Nature of the assay: fluorescence polarisation.
The target of assay [14] is LmPBPA1_(1-20)^Arg8Ala (L. monocytogenes EGD-e). Nature of the assay: fluorescence polarisation.
Assay [15] concerns the target LmPBPA1_(1-20)^Arg8Ala,Ser16Arg (L. monocytogenes EGD-e). Nature of the assay: fluorescence polarisation.
Assay [16] has as its target LmPBPA1_(1-20)^Tyr11Ala (L. monocytogenes EGD-e). Nature of the assay: fluorescence polarisation.
Assay [17] has as its target Q10P-mutated LmPBPA1 peptide (taken as LmPBPA1_(1-20)^Gln10Pro) (L. monocytogenes EGD-e). Nature of the assay: fluorescence polarisation.
The target of assay [18] is T1, BsYpbE_(1-21), fluorescein-labelled (B. subtilis, UniProt P50731 1-21, fluorescein (position not given)).
T1 construct: also called 21-residue fragment of the cytoplasmic domain of BsYpbE; source: synthetic peptide
T1 peptide: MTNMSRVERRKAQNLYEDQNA
Briefly: fluorescence polarisation. Conditions: both partners purified.

Assay [19] has as its target T2, BsPBP1_(1-32), TAMRA-labelled at position 16 (B. subtilis, UniProt P39793 1-32, Ser16Cys, TAMRA (maleimide) at position 16).
T2 construct: PBP1, Bacillus subtilis, residues 1-32; also called BsPBPA1_(1-32); BsPBP1A_(1-32); source: E. coli, His-tagged MBP fusion purified (Ni-NTA), labelled, TEV-cleaved, ultrafiltration
T2 peptide (looked up): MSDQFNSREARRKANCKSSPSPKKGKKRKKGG
Briefly: fluorescence polarisation; GpsB protein titrated into fluorescently labelled peptide; 10 mM Tris.HCl pH 8.0, 250 mM NaCl, 0.1% reduced Triton X-100; fit to a 1:1 interaction model. As to conditions: both partners purified.

In assay [20] the target is T3, BsYrrS_(1-18), fluorescein-labelled (B. subtilis, UniProt O32031 1-18, also: fluorescein label, position not given here).
T3 construct: YrrS, Bacillus subtilis, residues 1-18; also called entire cytoplasmic mini-domain of BsYrrS
T3 peptide (looked up): MSNNQSRYENRDKRRKAN
The assay is described as above. Conditions: both partners purified.

In assay [21] the target is T4, BsGpsB1-68 Tyr25Phe (B. subtilis, UniProt P0CI74 1-68, Tyr25Phe).
T4 construct: GpsB, Bacillus subtilis, residues 1-68 (N-terminal domain); also called BsGpsB1-68 Y25F; source: E. coli BL21(DE3), purified (Ni-NTA, thrombin removal of the His6-tag, SEC); not shown: His6, N-terminal, cleaved
T4 sequence (looked up): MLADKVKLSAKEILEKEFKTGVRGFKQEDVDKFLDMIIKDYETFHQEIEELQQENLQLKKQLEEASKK
Briefly: fluorescence polarisation. As to conditions: both partners purified.

Assay [22] deals with T5, BsGpsB1-68 Asp31Ala (B. subtilis, UniProt P0CI74 1-68, Asp31Ala).
T5 construct: GpsB, Bacillus subtilis, residues 1-68 (N-terminal domain); also called BsGpsB1-68 D31A; source: E. coli BL21(DE3), purified (Ni-NTA, thrombin removal of the His6-tag, SEC); not shown: His6, N-terminal, cleaved
T5 sequence (looked up): T4 sequence (looked up) with F25Y, D31A
Nature of the assay: fluorescence polarisation. As to conditions: both partners purified.

Assay [23] has as its target T4, BsGpsB1-68 Tyr25Phe. Nature of the assay: fluorescence polarisation; GpsB protein titrated into TAMRA- or fluorescein-labelled peptide; 10 mM Tris.HCl pH 8.0, 250 mM NaCl, 0.1% reduced Triton X-100; all data fitted to a 1:1 interaction model, Kd ± standard error. As to conditions: both partners purified.
Assay [24] has as its target T5, BsGpsB1-68 Asp31Ala. The description is as above. As to conditions: both partners purified.
For assay [25], the target named is T6, BsGpsB (Bacillus subtilis, UniProt P0CI74).
T6 construct: new FP data concerning full length BsGpsB have now been added to; made in house; host or cells: E. coli BL21(DE3)
Nature of the assay: BACTH interaction with BsGpsB. The format is cell-based. As to conditions: E. coli BTH101, nutrient agar, 30 °C.

In assay [26] the target is T7, SpGpsB_(1-63) (S. pneumoniae R6, UniProt Q8DR57 1-63).
T7 construct: GpsB, Streptococcus pneumoniae R6, residues 1-63 (stop codon in place of Pro64); also called N-terminal domain of SpGpsB; wildtype SpGpsB_(1-63); source: E. coli, purified (Ni-NTA, thrombin, ammonium sulphate precipitation, gel filtration)
T7 sequence (looked up): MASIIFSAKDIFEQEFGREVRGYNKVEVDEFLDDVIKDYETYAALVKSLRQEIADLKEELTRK
Nature of the assay: fluorescence polarisation. Conditions: both partners purified.

Where a chain is given by its changes, count along the chain named. Non-standard residues stand in square brackets, D forms with d. No end group written: not given here. fluorescein = fluorescein fluorescent label on the N-terminus; C(fluorescein) = cysteine carrying a fluorescein label; Nle = CCCC[C@H](N)C(=O)O

T6 sequence (P0CI74 whole entry): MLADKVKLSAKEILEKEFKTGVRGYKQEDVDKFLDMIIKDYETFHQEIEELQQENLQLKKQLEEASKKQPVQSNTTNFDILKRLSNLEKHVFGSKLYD

The Kd is the free concentration of one partner at which half of the binding sites on the other are occupied at equilibrium, for simple one-to-one binding. High values mean lower affinity, low ones higher affinity. On to SpGpsB1-63 (domain or fragment), for which the Kd is 370 µM in [1]; 150 µM in assay [2]; more than 2000 µM in assay [3]; 530 µM in assay [4]; 360 µM in assay [5]; 270 µM in [6]. The molecule further displayed a Kd in assay [7] of 210 µM.
“SpGpsB1-63 Asp33Ala (domain or fragment)”: the Kd in assay [8] was more than 3000 µM.
As to “BsGpsB1-68 Lys32Glu (from UniProt P0CI74 1-68) (domain or fragment)”, the Kd in assay [9] was 800 µM; in assay [10] it was more than 3000 µM; in assay [11] it was more than 2000 µM; in assay [12] it was 190 µM.

B1: BsGpsB_(1-68)^Lys32Glu (domain or fragment)
chain: T4 sequence (looked up) with F25Y, K32E
For the molecule B1, the fold reduction in affinity against wild type is 4 fold in [13], more than 15 fold in [14], 2 fold in assay [16] and more than 7 fold in assay [17]. The molecule also had a fold weaker affinity than wild type in assay [15] of more than 10 fold.

B2: BsGpsB_(1-68)^Tyr25Phe (domain or fragment, B. subtilis, UniProt P0CI74 1-68, looked up)
chain: T4 sequence (looked up)
notes: GpsB, Bacillus subtilis, residues 1-68; the making of this mutant is not described in the methods; also called BsGpsB^Tyr25Phe; source: E. coli, purified (Ni-NTA, thrombin, size exclusion)
For B2, the “fold reduction in affinity against wild type” value in assay [18] was approximately 40 fold; in assay [19], more than 8 fold; in [20], 7 fold.

B3: BsGpsB_(1-68)^Asp31Ala (domain or fragment, B. subtilis, UniProt P0CI74 1-68, looked up)
chain: T4 sequence (looked up) with F25Y, D31A
notes: GpsB, Bacillus subtilis, residues 1-68; also called BsGpsB^Asp31Ala; source: E. coli, purified (Ni-NTA, thrombin, size exclusion)
On to B3, for which the “fold reduction in affinity against wild type” value in [18] was approximately 40 fold; in assay [19], more than 8 fold; in assay [20], 7 fold.
For fluorescein-[Nle]TN[Nle]SRVERRKAQNLYEDQNA [Fluoroescein-BsYpbE1-21], the Kd in assay [21] and in assay [22] was more than 500 µM throughout.
As to MSNNQSRYENRDKRRKAN-{C(fluorescein)} [Fluoroescein-BsYrrS1-18], the Kd in assay [23] and in assay [24] was more than 3000 µM throughout.

B4: BsYrrS: B. subtilis YrrS (protein, UniProt O32031 1-233, looked up)
Uncharacterized membrane …: MSNNQSRYENRDKRRKANLVLNILIAIVSILIVVVAANLFINSPSSKDVSKDSETAQKQESPASGKTEKKSDEDIKDSKKDTSDSEKDSEKSSDSDSKKDDSSSKKDDSDSDSSSDSAGDGLKDAKVTEGGSSSDVEKTYENPDWKAVGTEQTGEHAATYDSSSQDWAEMLKAISYATGVSTDNMTVLWLGNNGSPQDAKGKILDKATGNKYQVTITWVDEKGWKPTKVEKLK
For B4, the “BACTH interaction with BsGpsB” value in assay [25] is reported as “detected”.

B5: SpPBP2a_(23-45), TAMRA-labelled (peptide)
peptide: DSDSTILRRSRSDRKKLAQVCPI
modifications: also: TAMRA (maleimide) label, site not given here
notes: source: E. coli, His-tagged MBP fusion purified (Ni-NTA), labelled, TEV-cleaved, ultrafiltration
In turn, B5 yielded a Kd in [26] of 80 µM.

B6: SpPBP2x_(1-29), fluorescently labelled (peptide)
peptide: GSGMKWTKRVIRYATKNRKSPAENRRRVGKSLCS
modifications: also: TAMRA or fluorescein maleimide label, which one and site not given here
notes: as for B5
B6: the binding result in [26] was “binds”.

B7: BsYpbE: B. subtilis YpbE, LysM-domain membrane protein (protein, UniProt P50731 1-240, looked up)
Uncharacterized protein YpbE: MTNMSRVERRKAQNLYEDQNAALADDYVDDGESLPTRQSVKNQREQKKKQGKTKTPLFTVLAVIFVFVPVIVLVTLFYLKSHPDNHDDYEDVFIDSSQSKYEVVPKSEDKNDTADTKETALQKESKKEPEDSKPKEQTAADKKQTAVAEKEDSPNKEEATAAAASSSQSTVQQQEQPAEPVQNVPNRVVKHTVQKKETLYRISMKYYKSRTGEEKIRAYNHLNGNDVYTGQVLDIPLMDE
For B7, in [25], the “BACTH interaction with BsGpsB” value is “detected”.
